Measurements: patent publication US20240270826A1
Values joined by “and” are separate entries in the source; they are usually repeats but may differ in a detail not shown here. Identical values can stand only once. Like-named read-outs stand apart in the source and are kept apart here.

Legend:
[1] = biological target: Human SARS-CoV-2_Wuhan S (SmT1) (SARS-CoV-2 (Wuhan)) (UniProt P0DTC2)
[2] = biological target: SARS-CoV-2 S1 (aa16-685) (Wuhan) (SARS-CoV-2 Wuhan) (UniProt P0DTC2); test: SPR, antigen on chip
[3] = biological target: SARS-CoV-2 S1-RBD fused to human Fc (S1-RBD-Fc) (SARS-CoV-2 Wuhan; human); test: SPR, antigen on chip
[4] = biological target: SARS-CoV-2 spike trimer S (Wuhan, SmT1) (SARS-CoV-2 Wuhan); test: SPR, antigen on chip
[5] = biological target: SARS-CoV-2 S1 (aa16-685) (Wuhan) (SARS-CoV-2 Wuhan) (UniProt P0DTC2); test: SPR, antigen on chip; remark: listed apart in the source
[6] = biological target: SARS-CoV-2 S1-RBD fused to human Fc (S1-RBD-Fc) (SARS-CoV-2 Wuhan; human); test: SPR, antigen on chip; remark: listed apart in the source
[7] = biological target: SARS-CoV-2 spike trimer S (Wuhan, SmT1) (SARS-CoV-2 Wuhan); test: SPR, antigen on chip; remark: listed apart in the source
[8] = biological target: SARS-CoV-2 spike protein S on live virus, Wuhan (strain SARS-CoV-2/Canada/VIDO-01/2020) (SARS-CoV-2 (Wuhan)) (UniProt P0DTC2); test: cell-based or functional assay
[9] = biological target: Human SARS-CoV-2_Wuhan S (SmT1) (SARS-CoV-2 (Wuhan)) (UniProt P0DTC2); test: SPR, VHH over immobilised S
[10] = biological target: SARS-CoV spike (S) (SARS-CoV) (UniProt P59594); test: SPR, VHH over immobilised S
[11] = biological target: Human SARS-CoV-2_Wuhan S (SmT1) (SARS-CoV-2 (Wuhan)) (UniProt P0DTC2); test: tandem SPR, immobilized S, orientation 1: VHH alone
[12] = biological target: Human SARS-CoV-2_Wuhan S (SmT1) (SARS-CoV-2 (Wuhan)) (UniProt P0DTC2); test: flow cytometry SVNA, VHH vs biotin-S binding to Vero E6 ACE2
[13] = biological target: SARS-CoV-2 S on CHO-S cells (SARS-CoV-2) (UniProt P0DTC2); test: flow cytometry, CHO-S cells
[14] = biological target: Human SARS-CoV-2_Wuhan S (SmT1) (SARS-CoV-2 (Wuhan)) (UniProt P0DTC2); test: flow cytometry SVNA, VHH-Fc vs biotin-S binding to Vero E6 ACE2
[15] = biological target: Human SARS-CoV S (SARS-CoV) (UniProt P59594); test: flow cytometry SVNA: VHH-Fc inhibits S binding to ACE2 on Vero E6 cells
[16] = biological target: Human SARS-CoV-2_Wuhan S (SmT1) (SARS-CoV-2 (Wuhan)) (UniProt P0DTC2); test: as above

With VHH-72 VHH the End 2nd inj (RU) [1] was 37.8 RU and 51.2 RU, the Kd [2] was 156 nM and the koff [2] was 0.146 s⁻¹. For the same substance, the kon [2] was 940000 M⁻¹ s⁻¹, the Kd [3] was 200 nM and the koff [3] was 0.134 s⁻¹. The kon [3] was 667000 M⁻¹ s⁻¹, the Kd [4] was 142 nM and the koff [4] was 0.156 s⁻¹. It also gave a kon [4] of 1.1e+06 M⁻¹ s⁻¹, a Kd [5] of 194 nM and a koff [5] of 0.161 s⁻¹. The kon [5] was 830000 M⁻¹ s⁻¹, the Kd [6] was 185 nM and the koff [6] was 0.126 s⁻¹. For the same substance, the kon [6] was 682000 M⁻¹ s⁻¹, the koff [7] was 0.15 s⁻¹ and the kon [7] was 1.06e+06 M⁻¹ s⁻¹. The MN100 [8] was 156 nM, the Kd [9] was 86.2 nM and the koff [9] was 0.106 s⁻¹. For the same substance, the kon [9] was 1.23e+06 M⁻¹ s⁻¹, the Kd [10] was 6.52 nM and the koff [10] was 0.00656 s⁻¹. For the same substance, the kon [10] was 1.01e+06 M⁻¹ s⁻¹, the End 1st inj (RU) [11] was 25.8 RU and the IC50 [12] was 59 nM. It also gave an IC99 [12] of 9.41 µM and an Imax % [12] of 43%.
Substance VHH-72 VHH-Fc (Fc fusion) has an LVNA IC50 [8] of 8.46 nM, an MN100 [8] of 1.25 nM and a Bmax [13] of 8030. For the same substance, the EC50 [13] was 0.2 nM, the IC50 [14] was 7.2 nM and the IC99 [14] was 238 nM. For the same substance, the Imax % [14] was 57%, the IC50 [15] was 7.8 nM and the IC50 [16] was 5.6 nM.
